In paper PMC6727763 (Molecular Biology of the Cell, 2019) one finds Kd, koff and kon data, which are given here for one molecule.

The target of this test is T1, αE-catenin construct containing the M123 domain (UniProt P26231 1-906).
T1 sequence (looked up): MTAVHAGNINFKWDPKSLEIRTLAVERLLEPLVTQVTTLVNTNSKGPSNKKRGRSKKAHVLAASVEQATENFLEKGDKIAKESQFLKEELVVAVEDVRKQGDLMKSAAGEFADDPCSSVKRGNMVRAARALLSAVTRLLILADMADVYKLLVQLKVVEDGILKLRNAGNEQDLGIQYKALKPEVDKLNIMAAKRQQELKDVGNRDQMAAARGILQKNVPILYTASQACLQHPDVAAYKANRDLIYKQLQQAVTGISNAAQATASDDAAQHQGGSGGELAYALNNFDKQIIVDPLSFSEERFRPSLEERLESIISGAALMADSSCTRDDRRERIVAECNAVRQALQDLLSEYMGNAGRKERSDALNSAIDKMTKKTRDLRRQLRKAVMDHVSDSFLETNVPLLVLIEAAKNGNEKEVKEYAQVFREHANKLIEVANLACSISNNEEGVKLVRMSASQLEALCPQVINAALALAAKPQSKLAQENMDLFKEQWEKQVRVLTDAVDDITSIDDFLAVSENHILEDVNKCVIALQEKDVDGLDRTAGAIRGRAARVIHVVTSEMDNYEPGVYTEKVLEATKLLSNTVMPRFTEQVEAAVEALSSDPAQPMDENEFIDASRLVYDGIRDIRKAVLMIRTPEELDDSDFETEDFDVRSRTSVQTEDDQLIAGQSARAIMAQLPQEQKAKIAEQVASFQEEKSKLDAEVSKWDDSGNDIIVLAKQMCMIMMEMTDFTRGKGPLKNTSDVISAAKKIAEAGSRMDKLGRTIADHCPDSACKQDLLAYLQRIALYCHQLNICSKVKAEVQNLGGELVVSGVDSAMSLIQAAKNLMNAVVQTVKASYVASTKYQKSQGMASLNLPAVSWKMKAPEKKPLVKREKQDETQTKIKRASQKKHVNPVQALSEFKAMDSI
Put plainly: magnetic tweezers force-jumping assay.

B1: vinculin head domain 1 (VD1) (domain or fragment)
chain: MPVFHTRTIESILEPVAQQISHLVIMHEEGEVDGKAIPDLTAPVSAVQAAVSNLVRVGKETVQTTEDQILKRDMPPAFIKVENACTKLVRAAQMLQADPYSVPARDYLIDGSRGILSGTSDLLLTFDEAEVRKIIRVCKGILEYLTVAEVVETMEDLVTYTKNLGPGMTKMAKMIDERQQELTHQEHRVMLVNSMNTVKELLPVLISAMKIFVTTKNTKSQGIEEALKNRNFTVEKMSAEINEIIRVLQLTSWDEDAW
A word on the Kd: it is the constant that tells how readily two partners part at equilibrium. Read a low Kd as a tighter complex. As a reminder, the koff is the first-order rate constant of dissociation. A word on the kon: it is the second-order rate constant of association. The low end stands for slower complex formation, the high end for faster complex formation. B1 had a Kd of 2 nM, a koff of 0.008 s⁻¹ and a kon of 4.8e+06 M⁻¹ s⁻¹.
